The record followed here is US20050130227A1 (MUNIN, published 2005).

Experiment [1] has as its target T1, nuclear membrane protein nucleoporin p62 (mouse, UniProt Q63850 2-526).
T1 construct: Negative control protein; detected with anti-Nucleoporin p62 monoclonal clone 53; also called nuclear envelope protein Nucleoporin p62
T1 sequence (looked up): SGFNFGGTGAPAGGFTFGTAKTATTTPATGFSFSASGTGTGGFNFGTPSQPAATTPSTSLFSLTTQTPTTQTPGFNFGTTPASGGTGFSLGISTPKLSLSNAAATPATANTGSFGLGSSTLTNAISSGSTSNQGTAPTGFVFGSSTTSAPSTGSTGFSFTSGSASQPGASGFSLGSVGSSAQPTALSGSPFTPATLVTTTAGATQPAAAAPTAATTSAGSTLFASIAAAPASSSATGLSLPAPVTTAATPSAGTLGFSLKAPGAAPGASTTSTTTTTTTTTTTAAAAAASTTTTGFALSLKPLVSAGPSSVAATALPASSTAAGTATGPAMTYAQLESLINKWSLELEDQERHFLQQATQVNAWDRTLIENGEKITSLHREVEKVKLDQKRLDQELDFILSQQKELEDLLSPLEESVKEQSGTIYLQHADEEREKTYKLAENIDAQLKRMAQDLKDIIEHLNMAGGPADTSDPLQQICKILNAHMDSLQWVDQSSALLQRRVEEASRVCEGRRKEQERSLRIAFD
The experiment is described as follows: GST pull-down from mouse C1-1D nuclear extract, Western blot. The source says: (A) Mouse C1-1D cell nuclear extract proteins were allowed to bind to bead immobilized GST-mGPBP fusion proteins. […] The antibodies used to probe these blots were raised against TBP, The C-terminal domain of RNA polymerase II (RNA pol II CTD), Transcription Fraction IIB (TFIIB), Transcription Fraction IIF RAP30 subunit (TFIIF RAP30), P300/CAAT Binding Protein (CBP), and the negative control antibodies against the nuclear envelope protein Nucleoporin p62. The estimated molecular weight of proteins in each band (in Kd) based on electrophoretic mobility in comparison to protein size markers were shown on the right by arrows. (B) In vivo binding of mGPBP was determined by immuno-coprecipitation analyses of cell lysates. […] The antibodies raised against TBP, RNA pol II CTD, TFIIB, CBP, or HA-tag were used as probes as indicated in each blot. The estimated molecular weight of proteins in each band (in Kd) based on electrophoretic mobility in comparison to protein size markers are shown on by arrows. The migration location of the HA-mGPBP fusion protein is also shown on the right of the panel with an arrow.
Nuclear extracts were prepared as previously described (Berger and Kimmel, 1987) with minor modifications. Mouse C1-1D Cells were collected and washed with 10 volumes of PBS once. […]
(Immunoblotting shows a protein as a band on a membrane.)

Experiment [2] has as its target T1, nuclear membrane protein nucleoporin p62. The experiment can be described thus: co-immunoprecipitation with anti-HA antibodies from transfected C1-1D cells, Western blot. The source says:
To examine whether the in vitro complexing of GPBP with transcription factors also occurs in vivo, we performed a co-immunoprecipitation experiment using an HA-tagged mGPBP expression construct in mouse C1-1D cells. The hemagglutinin antigen (HA)-tagged (Field, 1988[2]) mGPBP eukaryotic expression construct pCDNAHA-mGPBP was generated by inserting the (HA) tag coding sequence upstream of, and in frame with, the mGPBP cDNA's ORF in pCDNA-mGPBP. Anti-HA antibodies were used to immunoprecipitate nuclear extract proteins derived from the transfected cells. As a control, nuclear extract from cells transfected with the HA expression vector containing no GPBP-encoding sequences underwent a similar immunoprecipitation procedure.

B1: recombinant GST-mGPBP fusion protein (other)
chain: MAQHDFAPAWLNFPTPPSSTKSSLNFEKHSENFSWTENRYDVSRRRHNSSDGFDSGIGRPNGGNFGRKEKNGWRTHGRNGTENINHRGGYHGGNSRSRSSIFHSGKSQGLHENSIPDNETGRKEDKRERRQFEAEDFPSLNPEYEREPNQNKSLAAGVWGLHAQTHTYPTKKISQAPLLDYPPNPKSRTPRMLVIKKGNTKDLQLSGFPVAGNLQSQPVKNGTSPSVYKGLVPKPAVPPTKPTQWKSQTKENKVGTSFSHESTYGVGNFNTFKSTAKNISPSTNSVKECNRSNSSSPVDKLNQQPRLTKLTRMRSDKKSEFLKALKRDRVEEEHEDESHAGSEKDDDSFNLHNSNTTHQERDINRNFDENEIPQENGNASIISQQIIRSSTFPQTDVLSSSLEAEHRLLKEMGWQEDSENDETCAPLTEDEMREFQVISEQLQKNGLRKNGILKNGLICDFKFGPWKNSTFKPTIENDDTETSSSDTSDDDDV
notes: also called immobilized recombinant mGPBP; bead immobilized GST-mGPBP fusion proteins; not shown: N-terminal glutathione S-transferase (GST) carrier and the vector-encoded linker of pGEX-4T-1 between GST and the insert
On to B1, for which, in experiment [1], the binding result is “no binding”.

B2: HA-tagged mGPBP (other)
chain: B1 chain
notes: Expressed from pCDNAHA-mGPBP in transfected mouse C1-1D cells; whole mGPBP ORF; also called HA-mGPBP; HA-tag fused to mGPBP; not shown: hemagglutinin antigen (HA) tag upstream of and in frame with the ORF
Turning to B2, the binding result in experiment [2] was “no binding”.
